The text below walks through data of patent US20110183342A1.

This test concerns the target HLA-B1501 (purified MHC class I molecule) (human). The experiment in a line: competition with a radiolabeled probe peptide for purified MHC class I.

For orientation: IC50 means the concentration that gives 50% inhibition. On to AVINTTCNYGQ (modifications not checked) [Mtb8.4 5-15 peptide …], for which the IC50 is 10 nM.
